According to the supplement of paper PMC10126150:
± gives the standard deviation of the averaged measurements.

test system: ATP; assay: switch fluorescence ratio, 500 uM ATP over buffer (Cy3 cluster intensity, sum of 5 cycles each) (fold (ratio)); higher = stronger signal-on switching upon ATP binding; sequences stand for … in TCGTCGGCAGCGTCAGATGTGTATAAGAGACAGTTTTTTTTTTTTTTTTTTTTTTTTT…TC; conditions: aptamer strand: ATP DNA aptamer (quencher-CACCTGGGGGAGTATTGCGGAGGAAGG + anchor), 100 nM annealed; ATP concentration: 500 uM
Summary of the method: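 After annealing to 100 nM quencher-labelled ATP aptamer, Cy3-labelled switching-strand clusters on a modified Illumina MiSeq flow-cell were imaged in selection buffer. A second image followed after 15 min with 500 uM ATP at 22 °C, and five such buffer/ATP cycles were done, each separated by NaOH stripping and re-annealing. The fluorescence ratio, averaged per switch-domain sequence, is summed target-cycle over summed buffer-cycle Cy3 intensity per cluster, with clusters outside 100-1000 RFU excluded.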
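Note: ATP exposure 15 min at 22 °C before imaging.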

| Sequence | switch fluorescence ratio |
| --- | --- |
| AGGTGTTTAA | 1.03 ± 0.061 |
| TTCGGCGCCA | 1.03 ± 0.013 |
| CGAAGGGAAA | 1.12 ± 0.19 |
| GGAGGCGGGC | 0.963 ± 0.12 |
| TAGTTGTTGT | 0.981 ± 0.049 |
| TGGTTAGGTT | 0.966 ± 0.013 |
| TTAACCCGCC | 1.16 ± 0.14 |
| ATTTGCGAAT | 0.966 ± 0.039 |
| TAAGAAGTTT | 0.996 ± 0.028 |
| AAAATAGGGA | 0.989 ± 0.024 |
| AGTAGAGGAC | 1.01 ± 0.045 |
| ATGGGGGTTC | 0.992 ± 0.023 |
| GGGGACTTGC | 0.9913 ± 0.0045 |
| AGGATTTTTG | 1.02 ± 0.021 |
| ACTCTTGTTG | 1.01 ± 0.022 |
| GGGGCGGTGT | 1.32 ± 0.54 |
| AATTGTGCCT | 1.08 ± 0.055 |
| GGGTTATGCG | 1.04 ± 0.027 |
| TGGGCATTAT | 1.04 ± 0.07 |
| TACGCTGGGG | 1.02 ± 0.04 |
| ACAGGTAGCT | 1.06 ± 0.056 |
| TTATCTACGT | 1.07 ± 0.035 |
| GCTGAGGGTT | 0.9552 ± 0.006 |
| TAGGGTTGGG | 1 ± 0.031 |
| TTAACTTGAG | 0.9831 ± 0.0047 |
| TAGACGGGGG | 1 ± 0.04 |

| Sequence | switch fluorescence ratio |
| --- | --- |
| TTCTTTTGTT | 1 ± 0.025 |
| AAGCCCGGGG | 1.02 ± 0.025 |
| CGCATTAAGG | 1.11 ± 0.03 |
| GGGTGTGGGA | 0.997 ± 0.017 |
| GGTATGACTT | 1.03 ± 0.07 |
| TTTCGTATGT | 0.997 ± 0.05 |
| AAAGAGCCTT | 1.13 ± 0.2 |
| GGTTGAGCGG | 0.993 ± 0.011 |
| CTTGGTGGGG | 0.969 ± 0.031 |
| TATAACCTGT | 1.015 ± 0.0089 |
| TCCAGGCTTT | 1.05 ± 0.071 |
| TTAAGATTTA | 0.9933 ± 0.0077 |
| AAGTAATTGT | 1.01 ± 0.015 |
| CTGGCCTTTG | 0.983 ± 0.036 |
| CGAGTGGCGG | 0.968 ± 0.023 |
| CAGGTAAGAG | 0.987 ± 0.013 |
| ATCTATAGTG | 0.9651 ± 0.0035 |
| AATGTCGACC | 1.026 ± 0.0022 |
| AATTCGTCG | 0.9557 ± 0.0045 |
| CAGTTTGACC | 0.987 ± 0.048 |
| AAAATTGTGT | 1.01 ± 0.015 |
| GGAGGGATAG | 1.26 ± 0.029 |
| AGGTAATACA | 1.08 ± 0.029 |
| TGTGTTTGAG | 0.972 ± 0.051 |
| AGAGTGGGGC | 0.9817 ± 0.0089 |
| GATTGTACTC | 1.022 ± 0.01 |

| Sequence | switch fluorescence ratio |
| --- | --- |
| GCAGCCATAA | 2.27 ± 0.16 |
| GTTACTTAGC | 1.04 ± 0.082 |
| ATGAATTAAA | 0.992 ± 0.018 |
| AAATTTAGTA | 0.99 ± 0.018 |
| TGGCCGGGCG | 1.011 ± 0.0026 |
| ATCGCCTTGT | 0.9943 ± 0.0024 |
| TTTGGTTCTT | 1.02 ± 0.033 |
| TTATATTGCG | 0.9885 ± 0.0014 |
| AATTTCACGG | 1.03 ± 0.066 |
| TATTTGTCGG | 1.0172 ± 0.00047 |
| TCAGTAGATC | 1.02 ± 0.044 |
| TCAATGGTAT | 1.17 ± 0.28 |
| AGTGGAATGC | 1.12 ± 0.032 |
| CGAGCCTTAA | 1.09 ± 0.035 |
| TGGAAAAATG | 0.991 ± 0.031 |
| ACTTTTTAGG | 1.01 ± 0.044 |
| GTCCGGCTCG | 0.9897 ± 0.0011 |
| TTTTTGTATG | 1.02 ± 0.034 |
| TTGATCTGTT | 0.972 ± 0.021 |
| ATTGGGGGAT | 1.02 ± 0.078 |
| GAGGTTTCGT | 0.988 ± 0.02 |
| AGTTAGTTAG | 0.987 ± 0.011 |
| GCTGGAACTG | 1.06 ± 0.14 |
| AGAATGATTA | 0.986 ± 0.01 |
| TGATCAGGGA | 1.02 ± 0.021 |
| CGTGATTATA | 0.992 ± 0.0072 |

| Sequence | switch fluorescence ratio |
| --- | --- |
| ATCACATTCG | 1.02 ± 0.043 |
| GTGCAACTAC | 2.93 ± 0.32 |
| TGAGTGAGGG | 1.01 ± 0.018 |
| AGGGAACCCT | 1.13 ± 0.03 |
| ATGGAAAGTT | 0.99 ± 0.035 |
| CGGTTGTTTG | 0.974 ± 0.015 |
| TTGGGGTCTG | 1.02 ± 0.023 |
| CAGCGTAGGT | 1.02 ± 0.043 |
| TCCGTGGGGG | 1.09 ± 0.14 |
| TTTTGGTACC | 1.02 ± 0.015 |
| CCGAACTGAT | 1.13 ± 0.027 |
| GGGGGTAATT | 1.1 ± 0.052 |
| GATAGCTGGT | 0.981 ± 0.025 |
| TTCAGACCGT | 1.016 ± 0.0064 |
| AGAACGGTAT | 1.048 ± 0.0034 |
| TTAAAGGTGG | 0.984 ± 0.042 |
| ATGGTTAGGG | 1.03 ± 0.033 |
| TTGTTTGTTG | 0.994 ± 0.019 |
| GTGGTTGTAT | 0.974 ± 0.015 |
| TGGCGATTGT | 0.986 ± 0.014 |
| TATGAGCCTG | 0.968 ± 0.047 |
| GAGGGGTGAG | 1.01 ± 0.041 |
| CATCGGCAAG | 5.75 ± 1.3 |
| TCGGACACAT | 1.07 ± 0.03 |
| AGTTGTTTGT | 0.966 ± 0.016 |
| ATTTAGCTTA | 1.0052 ± 0.00027 |

| Sequence | switch fluorescence ratio |
| --- | --- |
| TGAACAAGAT | 1.01 ± 0.022 |
| CCCTCTATTC | 1.06 ± 0.03 |
| GTTACAGAGA | 1.003 ± 0.0011 |
| GACTCAGACA | 1.03 ± 0.047 |
| TTCGTGGGGC | 1.18 ± 0.21 |
| ATAGGTCCGG | 0.9957 ± 0.0041 |
| TTGGCCGTAG | 1.01 ± 0.028 |
| CTATGCGTAC | 3.51 ± 0.89 |
| GTCACCCTTT | 1.01 ± 0.014 |
| GACAGGGTCC | 1.04 ± 0.052 |
| TATTTAGGTA | 1.022 ± 0.0031 |
| GCTCTTGTGC | 1.008 ± 0.0034 |
| CTCTAAGGCT | 1.007 ± 0.009 |
| GTACGCGGAC | 1.07 ± 0.022 |
| TGCTGTAATA | 1.035 ± 0.0031 |
| CTTTATTTGC | 1.05 ± 0.021 |
| TTAAATATGG | 1.02 ± 0.033 |
| GGCGACACGT | 1.03 ± 0.023 |
| GCACGGGGCT | 1.04 ± 0.018 |
| TGCATGAGCG | 1.02 ± 0.032 |
| ATGGGGTTTT | 1.01 ± 0.02 |
| AGTAGGGAGT | 0.9784 ± 0.0094 |
| AGGGTGTGAT | 1.04 ± 0.026 |
| AGTAATTAGG | 1.027 ± 0.0043 |
| CTAGTGGGGA | 1.01 ± 0.017 |
| CATACAATAT | 1.109 ± 0.0014 |

| Sequence | switch fluorescence ratio |
| --- | --- |
| GATTTTCCGT | 1.009 ± 0.009 |
| TTTTGGGACT | 1.03 ± 0.019 |
| TGGGGGCTGT | 0.998 ± 0.016 |
| CAACGTAGGT | 1.05 ± 0.013 |
| TGAGGGAGGT | 0.985 ± 0.03 |
| ATTATGTCAG | 0.991 ± 0.024 |
| TGAAAGTGCT | 0.973 ± 0.02 |
| AAAGCTATAT | 1.12 ± 0.011 |
| GAGTTGGGGG | 1.02 ± 0.012 |
| ACAGGCGTCA | 1.02 ± 0.024 |
| TTTCGCGGTC | 1.9 ± 1.1 |
| TTGGAGTCTG | 0.994 ± 0.015 |
| CGTTTGTCGT | 1.04 ± 0.031 |
| CCGGACACGA | 1.39 ± 0.042 |
| GCGGGCGATG | 0.9902 ± 0.00014 |
| ATTAGAGGTT | 0.9898 ± 0.0094 |
| AACGTCTTTG | 0.9977 ± 0.0033 |
| TTACTTACGA | 1.4167 ± 0.00061 |
| TTTTGACTTT | 0.998 ± 0.023 |
| GAACGAGAGG | 1.01 ± 0.012 |
| TTGGAGGTCG | 1.03 ± 0.019 |
| AAACCCGGGA | 1.04 ± 0.058 |
| TACGTTGCTT | 0.9959 ± 0.0022 |
